# Measurements as given in US20170044515.
# T1: kB1-N* (not fully specified)
# T1 chain: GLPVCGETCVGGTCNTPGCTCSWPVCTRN
# T2: Rat neuromedin U substrate
# T2 chain: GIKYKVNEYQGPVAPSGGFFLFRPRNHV
# T3: EV-9
# T3 chain: EINSTEINHV
# T4: Histatin-3b
# T4 chain: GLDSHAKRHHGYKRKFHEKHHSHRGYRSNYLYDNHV
# T5: kB1-EHV (not fully specified)
# T5 chain: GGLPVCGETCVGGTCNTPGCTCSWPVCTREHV
# T6: Histatin-1b
# T6 chain: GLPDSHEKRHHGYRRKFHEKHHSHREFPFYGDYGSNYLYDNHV
# T7: Thanatin analog
# T7 chain: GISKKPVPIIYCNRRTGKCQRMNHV
# T8: Galanin substrate (H. sapiens)
# T8 chain: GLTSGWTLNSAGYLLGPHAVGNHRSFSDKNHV
# T9: SFTI-DHV
# T9 chain: GRCTKSIPPICFPDHV
# T10: Histatin-3a
# T10 chain: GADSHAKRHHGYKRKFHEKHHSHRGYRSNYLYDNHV
# T11: GV-10
# T11 chain: GLPPPIFNHV
# T12: Histatin-1a
# T12 chain: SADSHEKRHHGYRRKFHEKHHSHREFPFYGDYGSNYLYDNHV
# T13: Apelin substrate (H. sapiens)
# T13 chain: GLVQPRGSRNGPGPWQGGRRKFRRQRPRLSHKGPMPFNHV
# T14: kB1-NHVI (not fully specified)
# T14 chain: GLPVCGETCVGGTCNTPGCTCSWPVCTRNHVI
# T15: kB1-NHV (not fully specified)
# T15 chain: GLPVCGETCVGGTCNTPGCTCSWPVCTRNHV
# T16: Salusin substrate (H. sapiens)
# T16 chain: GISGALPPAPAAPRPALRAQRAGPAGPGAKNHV
# T17: Neuromedin U substrate (H. sapiens)
# T17 chain: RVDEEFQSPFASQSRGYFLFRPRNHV
# T18: SFTI-NHV
# T18 chain: GRCTKSIPPICFPNHV
# T19: HV-10
# T19 chain: HLPPPIFNHV
# T20: kB1-NH (not fully specified)
# T20 chain: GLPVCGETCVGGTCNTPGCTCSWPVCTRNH
# T21: kB1-NHVIA (not fully specified)
# T21 chain: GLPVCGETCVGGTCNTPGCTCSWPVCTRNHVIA
# T22: SA-kB1-NHV
# T22 chain: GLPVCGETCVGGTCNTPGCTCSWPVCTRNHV
# T23: kB1-QHV (not fully specified)
# T23 chain: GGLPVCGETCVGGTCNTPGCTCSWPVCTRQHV
# T24: kB1-AHV (not fully specified)
# T24 chain: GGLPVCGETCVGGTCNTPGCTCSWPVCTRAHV
# T25: SV-10
# T25 chain: SLPPPIFNHV
# T26: kB1-DHV (not fully specified)
# T26 chain: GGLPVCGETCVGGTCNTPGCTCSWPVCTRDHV
# T27: RV-10
# T27 chain: RVTRPVNHV
# B1: butelase 1 (active enzyme purified from pods of Clitoria ternatea) (protein)
# chain: VEGTRWAVLVAGSKGYVNYRHQADVCHAYQILKKGGLKDENIIVFMYDDIAYNESNPHPGVIINHPYGSDVYKGVPKDYVGEDINPPNFYAVLLANKSALTGTGSGKVLDSGPNDHVFIYYTDHGGAGVLGMPSKPYIAASDLNDVLKKKHASGTYKSIVFYVESCESGSMFDGLLPEDHNIYVMGASDTGESSWVTYCPLQHPSPPPEYDVCVGDLFSVAWLEDCDVHNLQTETFQQQYEVVKNKTIVALIEDGTHVVQYGDVGLSKQTLFVYMGTDPANDNNTFTDKNSLGTPRKAVSQRDADLIHYWEKYRRAPEGSSRKAEAKKQLREVMAHRMHIDN
# B2: Jack bean legumain (Takara Bio) (protein)
# chain: EVGTRWAVLVAGSNGYGNYRHQADVCHAYQLLIKGGVKEENIVVFMYDDIAYNAMNPRPGVIINHPQGPDVYAGVPKDYTGEDVTPENLYAVILGDKSKVKGGSGKVINSNPEDRIFIFYSDHGGPGVLGMPNAPFVYAMDFIDVLKKKHASGGYKEMVIYIEACESGSIFEGIMPKDLNIYVTTASNAQENSFGTYCPGMNPPPPEEYVTCLGDLYSVSWMEDSETHNLKRETVQQQYQSVRKRTSNSNSYRFGSHVMQYGDTNITAEKLYLYHGFDPATVNFPPHNGNLEAKMEVVNQRDAELLFMWQMYQRSNHQPEKKTHILEQITETVKHRNHLDGSVELIGVLLYGPGKSSSVLHSVRAPGLPLVDDWTCLKSMVRVFETHCGSLTQYGMKHMRAFGNVCNSGVSKASMEEACKAACGGYDAGLLYPSNTGYSA
# Legend:
# [1] = target: T1, kB1-N*
# [2] = target: T2, Rat neuromedin U substrate
# [3] = target: T3, EV-9
# [4] = target: T4, Histatin-3b
# [5] = target: T5, kB1-EHV
# [6] = target: T6, Histatin-1b
# [7] = target: T7, Thanatin analog
# [8] = target: T8, Galanin substrate (H. sapiens)
# [9] = target: T9, SFTI-DHV
# [10] = target: T10, Histatin-3a
# [11] = target: T11, GV-10
# [12] = target: MrIA conotoxin substrate
# [13] = target: T12, Histatin-1a
# [14] = target: T13, Apelin substrate (H. sapiens)
# [15] = target: T14, kB1-NHVI
# [16] = target: T15, kB1-NHV
# [17] = target: T16, Salusin substrate (H. sapiens)
# [18] = target: T17, Neuromedin U substrate (H. sapiens)
# [19] = target: T18, SFTI-NHV
# [20] = target: T19, HV-10
# [21] = target: T20, kB1-NH
# [22] = target: T21, kB1-NHVIA
# [23] = target: T22, SA-kB1-NHV
# [24] = target: T23, kB1-QHV
# [25] = target: modified GFP ending with Asn-His-Val at the C-terminus and starting with Gly-Ile at the N-terminus
# [26] = target: T24, kB1-AHV
# [27] = target: T25, SV-10
# [28] = target: T26, kB1-DHV
# [29] = target: T27, RV-10
protein,measurement,setting,value
B1,Cyclization yield (%) at 4 h,[1],< 10%
same,Km,[2],20.2 µM
same,cyclization yield within 5 min,[2],butelase 1 achieved >95% cyclization yields within 5 min for all peptides tested
same,kcat,[2],26.6 s⁻¹
same,kcat/Km,[2],1.31e+06 M^-1 S^-1
same,"Yield (%) of dimerization and cyclization, products Cyclo([..]), [..]",[3],20%
same,Yield (%) of cyclization,[4],90%
same,Cyclization yield (%) at 4 h,[5],< 1%
same,cyclization after 4 h (MS),[5],"No cyclization of kB1-AHV, kB1-QHV or kB1-EHV was observed after incubating with butelase 1 for 4 h"
same,Yield (%) of cyclization,[6],90%
same,Yield (%) of cyclization,[7],95%
same,Km,[8],34.2 µM
same,cyclization yield within 5 min,[8],butelase 1 achieved >95% cyclization yields within 5 min for all peptides tested
same,kcat,[8],3.54 s⁻¹
same,kcat/Km,[8],103000 M^-1 S^-1
same,Cyclization yield (%) at 4 h,[9],< 10%
same,Yield (%) of cyclization,[10],90%
same,"Yield (%) of dimerization and cyclization, product Cyclo([..])2",[11],50%
same,Km,[12],7.9 µM
same,Yield (%) of cyclization,[12],95%
same,kcat,[12],2.2 s⁻¹
same,kcat/Km,[12],278000 M⁻¹ s⁻¹
same,Yield (%) of cyclization,[13],90%
same,Km,[14],6.7 µM
same,cyclization yield within 5 min,[14],butelase 1 achieved >95% cyclization yields within 5 min for all peptides tested
same,kcat,[14],5.78 s⁻¹
same,kcat/Km,[14],859000 M^-1 S^-1
same,Cyclization yield (%) at 2 h,[15],> 95%
same,Km,[15],62 µM
same,kcat,[15],0.25 s⁻¹
same,kcat/Km,[15],4030 M⁻¹ s⁻¹
same,Cyclization yield (%) at 0.8 h,[16],> 95%
same,Km,[16],213 µM
same,conversion into cyclic kB1 within 6 min (RP-HPLC),[16],converted about 40% of kB1-NHV into cyclic kB1 within 6 min
same,kcat,[16],2.28 s⁻¹
same,kcat/Km,[16],10700 M⁻¹ s⁻¹
same,cyclization yield within 5 min,[17],butelase 1 achieved >95% cyclization yields within 5 min for all peptides tested
same,Km,[18],8.7 µM
same,cyclization yield within 5 min,[18],butelase 1 achieved >95% cyclization yields within 5 min for all peptides tested
same,kcat,[18],5.78 s⁻¹
same,kcat/Km,[18],664000 M^-1 S^-1
same,Cyclization yield (%) at 0.8 h,[19],> 95%
same,Km,[19],51 µM
same,catalytic efficiency (kcat/Km),[19],"catalytic efficiency of 11,700 M^-1 s^-1"
same,kcat,[19],0.6 s⁻¹
same,kcat/Km,[19],10700 M⁻¹ s⁻¹
same,"Yield (%) of dimerization and cyclization, product Cyclo([..])2",[20],50%
same,Cyclization yield (%) at 4 h,[21],< 5%
same,Cyclization yield (%) at 3 h,[22],> 95%
same,Km,[22],129 µM
same,kcat,[22],0.38 s⁻¹
same,kcat/Km,[22],2970 M⁻¹ s⁻¹
same,Cyclization yield (%) at 0.2 h,[23],> 95%
same,Km,[23],31.5 µM
same,fold change of catalytic efficiency against kB1-NHV,[23],a 50-fold improvement in the catalytic efficiency of SA-kB1-NHV compared to kB1-NHV
same,kcat,[23],17.1 s⁻¹
same,kcat/Km,[23],542000 M⁻¹ s⁻¹
same,Cyclization yield (%) at 4 h,[24],< 1%
same,cyclization after 4 h (MS),[24],"No cyclization of kB1-AHV, kB1-QHV or kB1-EHV was observed after incubating with butelase 1 for 4 h"
same,"cyclization yield within 15 min (SDS page, ESI-MS)",[25],The cyclization reaction completed within 15 min with >90% yield
same,Cyclization yield (%) at 4 h,[26],< 1%
same,cyclization after 4 h (MS),[26],"No cyclization of kB1-AHV, kB1-QHV or kB1-EHV was observed after incubating with butelase 1 for 4 h"
same,"Yield (%) of dimerization and cyclization, product Cyclo([..])2",[27],50%
same,Cyclization yield (%) at 4 h,[28],< 10%
same,cyclization rate against kB1-NHV,[28],at about a hundred-fold slower than kB1-NHV
same,"Yield (%) of dimerization and cyclization, products Cyclo(RVTRPVN), Cyclo(RVTRPVN)2",[29],20%
B2,hydrolysis or cyclization of kB1-NHV (MS),[16],commercial jack bean legumain was unable to cyclize kB1-NHV and generated only the linear form of kB1
